This is an account of results in PMC6321638, “Thermodynamic Characterization of the Ca^2+-Dependent Interaction Between SOUL and ALG-2” (International Journal of Molecular Sciences, 2018).

The term stoichiometry N denotes the number of molecules, sites or subunits per partner or assembly. What is called Kd is a measure of binding affinity in units of concentration.

Changes are numbered by the printed parent chain. Numbers in names are those of the source.

B1: His-SOUL mutant (36-111/126-205) without two PRRs (domain or fragment, mouse, UniProt Q9WU63 36-205, looked up)
chain: GSYEIRHYGPAKWVSTCVESLDWDSAIQTGFTKLNGYIQGKNEKEMKIKLTAPVTSYVEPGSSPFSESTITISLYIDVFIEDRAEMTVFVRSFDGFSSGQKNQEQLLTLANILREEGKVFNEKVFYTAGYSSPFQLLDRNNEVWLIQKNEPSVENK
notes: source: E. coli BL21(DE3) with pGroESL, purified (Ni-NTA-agarose, Sephadex G-25)
B2: His-SOUL^WT (wild-type SOUL fused to His-tag) (natural protein, mouse, UniProt Q9WU63 1-205, looked up)
chain: MAEEPEPDLGVAEGSEDQALEMPSWKAPEDIDPQPGSYEIRHYGPAKWVSTCVESLDWDSAIQTGFTKLNGYIQGKNEKEMKIKLTAPVTSYVEPGSSPFSESTITISLYIPSEQQPDPPRPSESDVFIEDRAEMTVFVRSFDGFSSGQKNQEQLLTLANILREEGKVFNEKVFYTAGYSSPFQLLDRNNEVWLIQKNEPSVENK
notes: Cloned into the Nde I and Sal I sites of pET28a(+); this probably gives an N-terminal His-tag with a thrombin site (surmised); Dimer by gel filtration; also called mSOUL; source: E. coli BL21(DE3) with pGroESL, purified (Ni-NTA-agarose, Sephadex G-25)
B3: delta3-23ALG-2^WT (domain or fragment, mouse, UniProt P12815 1-191, looked up)
chain: MADQSFLWNVFQRVDKDRSGVISDNELQQALSNGTWTPFNPVTVRSIISMFDRENKAGVNFSEFTGVWKYITDWQNVFRTYDRDNSGMIDKNELKQALSGFGYRLSDQFHDILIRKFDRQGRGQIAFDDFIQGCIVLQRLTDIFRRYDTDQDGWIQVSYEQYLSMVFSIV
notes: ALG-2 (PDCD6), murine, with deletion of the N-terminal 3-23 amino acids (the hydrophobic 21 residues); the plasmid paragraph calls it 24-191 amino acids, without tag; source: E. coli BL21-CodonPlus(DE3)-(RIPL), purified (Ca2+ precipitation, HiTrap Q, Sephacryl S-200 HR)
B4: GST-ALG-2^WT (wild-type ALG-2 fused to GST-tag) (natural protein, mouse, UniProt P12815 1-191, looked up)
chain: MAAYSYRPGPGGGPGPAAGAALPDQSFLWNVFQRVDKDRSGVISDNELQQALSNGTWTPFNPVTVRSIISMFDRENKAGVNFSEFTGVWKYITDWQNVFRTYDRDNSGMIDKNELKQALSGFGYRLSDQFHDILIRKFDRQGRGQIAFDDFIQGCIVLQRLTDIFRRYDTDQDGWIQVSYEQYLSMVFSIV
notes: ALG-2 (apoptosis-linked gene 2, PDCD6), murine, 1-191 amino acids; Cloned into the BamH I and Sal I sites of pGEX-4T-2; GST is probably N-terminal (surmised); also called apoptosis-linked gene 2 protein; PDCD6; source: E. coli BL21-CodonPlus(DE3)-(RIPL), purified (ammonium sulfate, Glutathione Sepharose, Sephadex G-25)
B5: GST-ALG-2 W89A (natural protein, mouse, UniProt P12815 1-191, looked up)
chain: B4 chain with W89A
notes: ALG-2 (PDCD6), murine, 1-191 amino acids with W89A (pocket 3); source: E. coli, purified (as GST-ALG-2)
B6: GST-ALG-2^∆GF (natural protein, mouse, UniProt P12815 1-191, looked up)
chain: MAAYSYRPGPGGGPGPAAGAALPDQSFLWNVFQRVDKDRSGVISDNELQQALSNGTWTPFNPVTVRSIISMFDRENKAGVNFSEFTGVWKYITDWQNVFRTYDRDNSGMIDKNELKQALSGYRLSDQFHDILIRKFDRQGRGQIAFDDFIQGCIVLQRLTDIFRRYDTDQDGWIQVSYEQYLSMVFSIV
notes: ALG-2 (PDCD6), murine, natural splice variant with deletion of Gly121 and Phe122; made by PCR-based mutagenesis of the 1-191 construct; also called ALG-2^ΔGF; source: E. coli, purified (as GST-ALG-2)
B7: GST-ALG-2 I92A (natural protein, mouse, UniProt P12815 1-191, looked up)
chain: B4 chain with I92A
notes: ALG-2 (PDCD6), murine, 1-191 amino acids with I92A (pocket 3); source: E. coli, purified (as GST-ALG-2)
B8: delta3-23ALG-2^∆GF (domain or fragment, mouse, UniProt P12815 1-191, looked up)
chain: MADQSFLWNVFQRVDKDRSGVISDNELQQALSNGTWTPFNPVTVRSIISMFDRENKAGVNFSEFTGVWKYITDWQNVFRTYDRDNSGMIDKNELKQALSGYRLSDQFHDILIRKFDRQGRGQIAFDDFIQGCIVLQRLTDIFRRYDTDQDGWIQVSYEQYLSMVFSIV
notes: ALG-2 (PDCD6), murine, deletion of the N-terminal 3-23 amino acids and of Gly121 and Phe122 (splice variant); numbers count on full-length ALG-2^WT; N-terminus as for m3; source: E. coli, purified (as delta3-23ALG-2)
B9: GST-ALG-2 F85A (natural protein, mouse, UniProt P12815 1-191, looked up)
chain: B4 chain with F85A
notes: ALG-2 (PDCD6), murine, 1-191 amino acids with F85A (pocket 3); source: E. coli, purified (as GST-ALG-2)
B10: GST-ALG-2 L52A (natural protein, mouse, UniProt P12815 1-191, looked up)
chain: B4 chain with L52A
notes: ALG-2 (PDCD6), murine, 1-191 amino acids with L52A (pocket 3); source: E. coli, purified (as GST-ALG-2)
B11: His-SOUL1-111 (domain or fragment, mouse, UniProt Q9WU63 1-111, looked up)
chain: MAEEPEPDLGVAEGSEDQALEMPSWKAPEDIDPQPGSYEIRHYGPAKWVSTCVESLDWDSAIQTGFTKLNGYIQGKNEKEMKIKLTAPVTSYVEPGSSPFSESTITISLYI
notes: SOUL (HEBP2), murine, residues 1-111; source: E. coli BL21(DE3) with pGroESL, purified (Ni-NTA-agarose, Sephadex G-25)
B12: His-SOUL1-143 (domain or fragment, mouse, UniProt Q9WU63 1-143, looked up)
chain: MAEEPEPDLGVAEGSEDQALEMPSWKAPEDIDPQPGSYEIRHYGPAKWVSTCVESLDWDSAIQTGFTKLNGYIQGKNEKEMKIKLTAPVTSYVEPGSSPFSESTITISLYIPSEQQPDPPRPSESDVFIEDRAEMTVFVRSFD
notes: as for B1

The target in series [1] is B4. Kind of series: pull-down; GST-pulldown: purified His-SOUL (5 µM) and GST-ALG-2 (5 µM) with Glutathione Sepharose 4B in buffer B (100 mM Tris-HCl pH 7.5, 100 mM NaCl, 10% glycerol) with 20 µM CaCl2 (or various amounts of Ca2+), 30 min at 4 °C; SDS-PAGE, Coomassie. Conditions: both partners purified.
Series [2] deals with B3. Kind of series: ITC; His-SOUL (130 or 260 µM) injected into delta3-23ALG-2 (5 or 10 µM); 25 °C, pH 7.5, buffer C (25 mM HEPES, 150 mM NaCl, 10% glycerol) with 15 µM CaCl2 and 0.25% Tween 20; one-set-of-sites model (sequential-binding-sites model also tried). Conditions: both partners purified. A general note: Isothermal titration calorimetry measures the heat released or taken up as one component is titrated into another.

The series “delta3-23ALG-2^∆GF” concerns the target B8. Described as above. Conditions: both partners purified.
The target of series [3] is B3. The series is described as above. Particulars: both partners purified. This is another data set of the same source.
Series [4] deals with the molecule itself. Kind of series: SEC; Sephacryl-S-200 HR (150 mL), 1 mL of each protein sample (5 µM), buffer B with 20 µM CaCl2; fractions by SDS-PAGE. (In general: SEC sorts molecules by how far they enter the pores of the column.)
The target in series [5] is B3. Described as above. Particulars: both partners purified.
The target in series [6] is B2. Nature of the series: ITC; His-SOUL (130 or 260 µM) injected into delta3-23ALG-2 (5 or 10 µM); 25 °C, pH 7.5, buffer C (25 mM HEPES, 150 mM NaCl, 10% glycerol) with 15 µM CaCl2 and 0.25% Tween 20; one-set-of-sites model (sequential-binding-sites model also tried). Particulars: both partners purified.
Series [7] addresses B2. Kind of series: pull-down; GST-pulldown: purified His-SOUL (5 µM) and GST-ALG-2 (5 µM) with Glutathione Sepharose 4B in buffer B (100 mM Tris-HCl pH 7.5, 100 mM NaCl, 10% glycerol) with 20 µM CaCl2 (or various amounts of Ca2+), 30 min at 4 °C; SDS-PAGE, Coomassie. Particulars: both partners purified.

As for B1, the binding result in series [1] was “binds”.
For the molecule B2, in the series with delta3-23ALG-2^WT [2], the “Kd of the first binding (sequential-binding-sites model)” value is 37 nM. Also, the “Kd of the second binding (sequential-binding-sites model)” value with delta3-23ALG-2^WT [2] was determined as 40 nM. Besides, the figures for the dH with delta3-23ALG-2^∆GF and in the series with delta3-23ALG-2^WT [3] were -19.8 ± 2 kcal/mol and -17.9 ± 0.7 kcal/mol, respectively. Besides, the “stoichiometry N” value with delta3-23ALG-2^∆GF turned out to be 1 ± 0.07; in the series with delta3-23ALG-2^WT [3], 1.16 ± 0.02; in series [4] it was 2; with delta3-23ALG-2^WT [5], 1.
In series [6], B3 gave a Kd of 32.4 ± 6.6 nM.
In the case of B4, the binding result in series [7] was “binds”.
Same read-out and setting: the result for B5 reads “binds”; that for B6, “binds”; that for B7, “binds”.
B8 had a Kd in series [6] of 62 ± 13.7 nM.
In the case of B9, the binding result in series [7] is reported as “binds”.
The same measure, in the same setting: for B10 the value was “binds”.
As to B11, in series [1], the binding result was “binds”.
On to B12, for which, in the series with delta3-23ALG-2^WT [2], the dissociation constant (Kd) came to 1300 nM and the “stoichiometry N” value was found to be 1.
